Experimental findings from patent US20210371529A1 are described below.

Read-outs that look alike come from different tables or passages of the source.

Test [1] concerns the target rhLAG3 protein (huFc) (human) (UniProt P18627). Description: flow cytometry, blocking of rhLAG3 (huFc) 20 nM binding to HLA-DR on CHO-DR cells. (A flow cytometer gives signals particle by particle.)
For test [2], the target named is human LAG-3-His (human) (UniProt P18627). Description: BLI (ForteBio), antibody on AHQ tip, human LAG-3-His 100 nM in solution, univalent. In general terms: In BLI a coated tip is dipped into the sample, and binding shifts an interference pattern.
human LAG-3-His (human), sequence (P18627 23-450 limits assumed): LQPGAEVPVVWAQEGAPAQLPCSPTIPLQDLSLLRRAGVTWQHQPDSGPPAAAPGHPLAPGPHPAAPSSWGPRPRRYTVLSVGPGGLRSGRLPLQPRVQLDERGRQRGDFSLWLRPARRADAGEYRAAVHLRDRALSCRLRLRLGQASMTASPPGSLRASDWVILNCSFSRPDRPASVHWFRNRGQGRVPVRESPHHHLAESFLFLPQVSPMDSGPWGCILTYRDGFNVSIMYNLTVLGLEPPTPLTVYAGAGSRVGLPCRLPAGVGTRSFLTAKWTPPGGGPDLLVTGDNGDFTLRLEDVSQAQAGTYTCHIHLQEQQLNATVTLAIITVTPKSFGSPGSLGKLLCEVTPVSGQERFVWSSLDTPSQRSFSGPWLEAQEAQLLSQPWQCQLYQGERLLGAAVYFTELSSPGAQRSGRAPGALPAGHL
Test [3] has as its target human LAG-3 overexpressed on HEK293 cells (human) (UniProt P18627). Description: flow cytometry on 293-hLAG-3 cells, MFI curve.
Test [4] shares this target. As to the kind of experiment: flow cytometry on 293-hLAG-3 cells, MFI curve. The source holds these as a separate data set.
The target in test [5] is LAG-3 on activated human CD4+ T cells (human) (UniProt P18627). As to the kind of experiment: flow cytometry on activated human CD4+ T cells, MFI curve.
LAG-3 on activated human CD4+ T cells (human), sequence (P18627 23-525): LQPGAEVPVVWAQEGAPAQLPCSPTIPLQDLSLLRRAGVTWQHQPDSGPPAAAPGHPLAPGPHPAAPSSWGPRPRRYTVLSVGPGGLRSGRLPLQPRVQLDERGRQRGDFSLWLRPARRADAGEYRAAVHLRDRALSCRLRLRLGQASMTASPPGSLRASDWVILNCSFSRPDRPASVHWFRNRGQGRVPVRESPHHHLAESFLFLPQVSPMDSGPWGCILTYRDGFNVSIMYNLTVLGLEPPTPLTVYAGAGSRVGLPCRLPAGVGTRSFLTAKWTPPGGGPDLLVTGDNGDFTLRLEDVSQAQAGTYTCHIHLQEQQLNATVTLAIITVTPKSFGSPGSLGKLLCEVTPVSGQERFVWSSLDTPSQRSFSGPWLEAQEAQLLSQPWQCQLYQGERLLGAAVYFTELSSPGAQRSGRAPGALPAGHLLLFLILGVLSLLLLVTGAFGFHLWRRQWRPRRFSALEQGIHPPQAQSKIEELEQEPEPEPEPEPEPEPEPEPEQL
The target in test [6] is human LAG-3-His (human) (UniProt P18627). As to the kind of experiment: BLI (ForteBio), antibody on AHQ tip, human LAG-3-His 100 nM in solution.

human LAG-3 overexpressed on HEK293 cells (human), sequence (P18627 23-525): as above
rhLAG3 protein (huFc) (human), sequence (P18627 23-450 limits assumed): as the sequence (P18627 23-450 limits assumed) above

The IC50 is the concentration that inhibits the measured activity by half. Read a high IC50 as a need for much substance. The Kd is the constant that tells how readily two partners part at equilibrium. As a reminder, the EC50 is the concentration that produces a half-maximal response. For orientation: koff means the first-order rate constant of dissociation. A lower koff goes with a long-lived complex. Broadly, the kon is a measure of how fast the partners come together. For the substance 25F7 (antibody), the IC50 in test [1] amounted to 5.14 nM. Also, the Kd in test [2] was 9.02 nM. Besides, the EC50 came out at 2.59 nM in test [3], 3.34 nM in test [4] and 0.036 nM in test [5]. Further, the koff in test [6] turned out to be 0.00101 s⁻¹. The kon in test [6] was determined as 112000 M⁻¹ s⁻¹.
